# Assay results published in patent publication US5916561.
# Key:
# [1] = molecular target: CD44 (variant isoforms not specified) on A431 cells (human) (UniProt P16070); experiment: 3H-labelled antibody on ethanol-fixed A431 cells
# [2] = molecular target: CD44 (variant isoforms not specified) on CX-1 cells (human) (UniProt P16070); experiment: 3H-labelled antibody on ethanol-fixed CX-1 cells
# [3] = molecular target: CD44 (variant isoforms not specified) on CaCo cells (human) (UniProt P16070); experiment: 3H-labelled antibody on ethanol-fixed CaCo cells
# [4] = molecular target: CD44 (variant isoforms not specified) on HT-29 cells (human) (UniProt P16070); experiment: 3H-labelled antibody on ethanol-fixed HT-29 cells
# [5] = molecular target: CD44 (variant isoforms not specified) on HCT-116 cells (human) (UniProt P16070); experiment: 3H-labelled antibody on ethanol-fixed HCT-116 cells
# [6] = molecular target: CD44 (variant isoforms not specified) on COLO 205 cells (human) (UniProt P16070); experiment: 3H-labelled antibody on ethanol-fixed COLO 205 cells
# [7] = molecular target: human variant CD44 (exons v3-v10) on the cell surface of CHO-CD44var cells (human) (UniProt P16070); experiment: 3H-labelled antibody on ethanol-fixed CHO CD44var cells
# [8] = molecular target: soluble CD44 variants containing exon v6 in normal human serum (human) (UniProt P16070); experiment: sandwich ELISA, coating antibody, serum 1 diluted 1:5, detection BU-52-peroxidase
# [9] = molecular target: soluble CD44 variants containing exon v6 in normal human serum (human) (UniProt P16070); experiment: sandwich ELISA, coating antibody, serum 2 diluted 1:5, detection BU-52-peroxidase
# [10] = molecular target: soluble CD44 variants containing exon v6 in normal human serum (human) (UniProt P16070); experiment: sandwich ELISA, coating antibody, serum 1 diluted 1:10, detection BU-52-peroxidase
# [11] = molecular target: soluble CD44 variants containing exon v6 in normal human serum (human) (UniProt P16070); experiment: sandwich ELISA, coating antibody, serum 1 diluted 1:20, detection BU-52-peroxidase
# [12] = molecular target: soluble CD44 variants containing exon v6 in normal human serum (human) (UniProt P16070); experiment: sandwich ELISA, coating antibody, serum 1 diluted 1:40, detection BU-52-peroxidase
# [13] = molecular target: soluble CD44 variants containing exon v6 in normal human serum (human) (UniProt P16070); experiment: sandwich ELISA, coating antibody, serum 1 diluted 1:80, detection BU-52-peroxidase
# [14] = molecular target: soluble CD44 variants containing exon v6 in normal human serum (human) (UniProt P16070); experiment: sandwich ELISA, coating antibody, serum 2 diluted 1:10, detection BU-52-peroxidase
# [15] = molecular target: soluble CD44 variants containing exon v6 in normal human serum (human) (UniProt P16070); experiment: sandwich ELISA, coating antibody, serum 2 diluted 1:20, detection BU-52-peroxidase
# [16] = molecular target: soluble CD44 variants containing exon v6 in normal human serum (human) (UniProt P16070); experiment: sandwich ELISA, coating antibody, serum 2 diluted 1:40, detection BU-52-peroxidase
# [17] = molecular target: soluble CD44 variants containing exon v6 in normal human serum (human) (UniProt P16070); experiment: sandwich ELISA, coating antibody, serum 2 diluted 1:80, detection BU-52-peroxidase
# [18] = molecular target: soluble CD44 variants containing exon v6 in normal human serum (human) (UniProt P16070); experiment: sandwich ELISA, coating antibody, serum 1 diluted 1:160, detection BU-52-peroxidase
# [19] = molecular target: soluble CD44 variants containing exon v6 in normal human serum (human) (UniProt P16070); experiment: sandwich ELISA, coating antibody, serum 1 diluted 1:320, detection BU-52-peroxidase
# [20] = molecular target: soluble CD44 variants containing exon v6 in normal human serum (human) (UniProt P16070); experiment: sandwich ELISA, coating antibody, serum 1 diluted 1:640, detection BU-52-peroxidase
# [21] = molecular target: soluble CD44 variants containing exon v6 in normal human serum (human) (UniProt P16070); experiment: sandwich ELISA, coating antibody, serum 2 diluted 1:160, detection BU-52-peroxidase
# [22] = molecular target: soluble CD44 variants containing exon v6 in normal human serum (human) (UniProt P16070); experiment: sandwich ELISA, coating antibody, serum 2 diluted 1:320, detection BU-52-peroxidase
# [23] = molecular target: soluble CD44 variants containing exon v6 in normal human serum (human) (UniProt P16070); experiment: sandwich ELISA, coating antibody, serum 2 diluted 1:640, detection BU-52-peroxidase
# [24] = molecular target: soluble CD44 variants containing exon v6 in normal human serum (human) (UniProt P16070); experiment: sandwich ELISA, serum of donor 1, calibrated on recombinant soluble CD44v3-v10; reference VFF-7
# [25] = molecular target: soluble CD44 variants containing exon v6 in normal human serum (human) (UniProt P16070); experiment: sandwich ELISA, serum of donor 2, calibrated on recombinant soluble CD44v3-v10; reference VFF-7
# [26] = molecular target: soluble CD44 variants containing exon v6 in normal human serum (human) (UniProt P16070); experiment: sandwich ELISA, serum of donor 3, calibrated on recombinant soluble CD44v3-v10; reference VFF-7
# [27] = molecular target: soluble CD44 variants containing exon v6 in normal human serum (human) (UniProt P16070); experiment: sandwich ELISA, serum of donor 4, calibrated on recombinant soluble CD44v3-v10; reference VFF-7
# [28] = molecular target: soluble CD44 variants containing exon v6 in normal human serum (human) (UniProt P16070); experiment: sandwich ELISA, serum of donor 5, calibrated on recombinant soluble CD44v3-v10; reference VFF-7
# [29] = molecular target: soluble CD44 variants containing exon v6 in normal human serum (human) (UniProt P16070); experiment: sandwich ELISA, serum of donor 6, calibrated on recombinant soluble CD44v3-v10; reference VFF-7
# [30] = molecular target: soluble CD44 variants containing exon v6 in normal human serum (human) (UniProt P16070); experiment: sandwich ELISA, sera of 6 healthy donors, calibrated on recombinant soluble CD44v3-v10; reference VFF-7
specific binding (bound antibody per 400 000 cells) [1] [fmol],specific binding (bound antibody per 400 000 cells) [2] [fmol],specific binding (bound antibody per 400 000 cells) [3] [fmol],specific binding (bound antibody per 400 000 cells) [4] [fmol],absorption (sandwich ELISA signal) (absorption at 450 nm) [8],absorption (sandwich ELISA signal) (absorption at 450 nm) [9],absorption (sandwich ELISA signal) (absorption at 450 nm) [10],absorption (sandwich ELISA signal) (absorption at 450 nm) [11],absorption (sandwich ELISA signal) (absorption at 450 nm) [12],absorption (sandwich ELISA signal) (absorption at 450 nm) [13],absorption (sandwich ELISA signal) (absorption at 450 nm) [14],absorption (sandwich ELISA signal) (absorption at 450 nm) [15],absorption (sandwich ELISA signal) (absorption at 450 nm) [16],absorption (sandwich ELISA signal) (absorption at 450 nm) [17],absorption (sandwich ELISA signal) (absorption at 450 nm) [18],absorption (sandwich ELISA signal) (absorption at 450 nm) [19],absorption (sandwich ELISA signal) (absorption at 450 nm) [20],absorption (sandwich ELISA signal) (absorption at 450 nm) [21],absorption (sandwich ELISA signal) (absorption at 450 nm) [22],absorption (sandwich ELISA signal) (absorption at 450 nm) [23],Substance,further results
8.19,0.19,0.03,0,0.417,1.28,0.289,0.179,0.072,0.062,1.19,0.857,0.468,0.208,0.03,0.008,0.007,0.061,0.014,0.018,antibody VFF-7,specific binding (bound antibody per 400 000 cells) [5]: 1.44 fmol; specific binding (bound antibody per 400 000 cells) [6]: 0 fmol; specific binding (bound antibody per 400 000 cells) [7]: 33.5 fmol
38.7,9.48,12.6,26.1,3.14,3.29,3.06,2.63,1.78,1.08,3.32,3.16,3.05,2.54,0.594,0.318,0.159,1.67,0.988,0.546,antibody VFF-18,specific binding (bound antibody per 400 000 cells) [5]: 20.2 fmol; specific binding (bound antibody per 400 000 cells) [6]: 2.88 fmol; specific binding (bound antibody per 400 000 cells) [7]: 46.5 fmol; VFF-18/VFF-7 (ratio of the serum levels read by the two ELISAs) [24]: 4.17; VFF-18/VFF-7 (ratio of the serum levels read by the two ELISAs) [25]: 2.66; VFF-18/VFF-7 (ratio of the serum levels read by the two ELISAs) [26]: 3.91; VFF-18/VFF-7 (ratio of the serum levels read by the two ELISAs) [27]: 3.31; VFF-18/VFF-7 (ratio of the serum levels read by the two ELISAs) [28]: 3.67; VFF-18/VFF-7 (ratio of the serum levels read by the two ELISAs) [29]: 3.48; VFF-18/VFF-7 (mean value of the ratio over 6 donors) [30]: 3.53
,,,,0.406,1.69,0.378,0.296,0.207,0.109,1.76,1.56,1.21,0.699,0.05,0.026,0.012,0.336,0.138,0.054,antibody VFF-4,
